Laboratory results published in PMC4571279 (Nature Communications, 2015).

Biological target: T1, recombinant MERS-CoV S1 protein (MERS-CoV, isolate EMC/2012 (strain of …, UniProt K0BRG7))
T1 construct: source: bought: Sino Biological Inc
Assay: ELISA
Details: both partners purified

Binder	fold reduction (EC50) against wild-type m336 [fold]	fold reduction of binding affinity against m336 [fold]
 (Fab, V domains shown, also called m336 F54L) VH: QVQLVQSGAEVKKPGSSVKVSCKASGGTFSSYAISWVRQAPGQGLEWMGGIIPILGTASYAQKFQGRVTITADKSTSTAYMELSSLRSEDTAVYYCARVGYCSSTSCNRGAFDIWGQGTMVTVSS VL: DIQLTQSPSSLSASVGDRVTITCRASQGIRNDLGWYQQKPGKAPKLLIYAASSLQSGVPSRFSGSGSGTDFTLTISSLQPEDFATYYCQQLNSYPLTFGGGTKVEIK	≥ 1000	
 (Fab, V domains shown, also called m336 K73E) VH: QVQLVQSGAEVKKPGSSVKVSCKASGGTFSSYAISWVRQAPGQGLEWMGGIIPIFGTASYAQKFQGRVTITADESTSTAYMELSSLRSEDTAVYYCARVGYCSSTSCNRGAFDIWGQGTMVTVSS VL: DIQLTQSPSSLSASVGDRVTITCRASQGIRNDLGWYQQKPGKAPKLLIYAASSLQSGVPSRFSGSGSGTDFTLTISSLQPEDFATYYCQQLNSYPLTFGGGTKVEIK		≥ 10
